One assay addresses T1, GFP-TONSL W563A (Homo sapiens, UniProt Q96HA7 1-1378).
T1 construct: also called TONSL W563A / GFP; not shown: N-terminal GFP tag
T1 sequence: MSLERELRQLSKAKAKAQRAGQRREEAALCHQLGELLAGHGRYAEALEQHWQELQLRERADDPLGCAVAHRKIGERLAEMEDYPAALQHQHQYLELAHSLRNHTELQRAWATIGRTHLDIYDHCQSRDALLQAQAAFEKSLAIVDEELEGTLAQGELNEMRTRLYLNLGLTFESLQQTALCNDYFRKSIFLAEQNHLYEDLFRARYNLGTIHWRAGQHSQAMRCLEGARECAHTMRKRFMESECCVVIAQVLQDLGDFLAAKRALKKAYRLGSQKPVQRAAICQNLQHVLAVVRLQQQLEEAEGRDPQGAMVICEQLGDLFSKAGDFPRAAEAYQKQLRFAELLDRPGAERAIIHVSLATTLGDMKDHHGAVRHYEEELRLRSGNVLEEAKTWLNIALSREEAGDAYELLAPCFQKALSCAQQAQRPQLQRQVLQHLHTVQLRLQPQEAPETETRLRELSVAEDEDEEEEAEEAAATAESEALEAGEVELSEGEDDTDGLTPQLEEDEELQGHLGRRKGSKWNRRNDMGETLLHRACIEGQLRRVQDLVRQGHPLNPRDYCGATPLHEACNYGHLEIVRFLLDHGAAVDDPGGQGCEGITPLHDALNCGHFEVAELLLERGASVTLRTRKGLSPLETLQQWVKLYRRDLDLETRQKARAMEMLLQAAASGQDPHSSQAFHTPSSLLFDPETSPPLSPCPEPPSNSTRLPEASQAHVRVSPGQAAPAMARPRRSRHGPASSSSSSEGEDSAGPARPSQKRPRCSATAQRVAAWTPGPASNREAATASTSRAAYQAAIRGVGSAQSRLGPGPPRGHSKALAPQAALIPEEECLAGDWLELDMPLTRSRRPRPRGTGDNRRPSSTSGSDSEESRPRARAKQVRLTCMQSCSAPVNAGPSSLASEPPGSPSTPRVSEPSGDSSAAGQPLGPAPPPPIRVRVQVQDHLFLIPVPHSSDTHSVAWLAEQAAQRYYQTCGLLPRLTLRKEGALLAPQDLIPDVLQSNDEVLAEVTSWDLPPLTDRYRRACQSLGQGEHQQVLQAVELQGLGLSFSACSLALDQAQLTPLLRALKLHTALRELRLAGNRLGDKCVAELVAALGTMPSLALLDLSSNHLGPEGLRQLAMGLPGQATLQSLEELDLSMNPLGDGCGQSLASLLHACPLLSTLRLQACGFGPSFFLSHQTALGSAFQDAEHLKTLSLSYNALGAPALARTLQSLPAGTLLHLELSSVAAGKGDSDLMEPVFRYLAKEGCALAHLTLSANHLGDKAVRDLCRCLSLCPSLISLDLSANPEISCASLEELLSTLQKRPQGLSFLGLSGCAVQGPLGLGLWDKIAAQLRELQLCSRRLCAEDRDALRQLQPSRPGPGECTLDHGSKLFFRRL
The assay is described as follows: GFP immunoprecipitation of GFP-TONSL from transfected HeLa S3 cells, western blot (co-IP; association may be indirect). In general terms: A western blot detects proteins with antibodies after separation by electrophoresis.

The target of the next assay is T2, GFP-TONSL N571A (Homo sapiens, UniProt Q96HA7 1-1378).
T2 construct: also called TONSL N571A / GFP; not shown: N-terminal GFP tag
T2 sequence: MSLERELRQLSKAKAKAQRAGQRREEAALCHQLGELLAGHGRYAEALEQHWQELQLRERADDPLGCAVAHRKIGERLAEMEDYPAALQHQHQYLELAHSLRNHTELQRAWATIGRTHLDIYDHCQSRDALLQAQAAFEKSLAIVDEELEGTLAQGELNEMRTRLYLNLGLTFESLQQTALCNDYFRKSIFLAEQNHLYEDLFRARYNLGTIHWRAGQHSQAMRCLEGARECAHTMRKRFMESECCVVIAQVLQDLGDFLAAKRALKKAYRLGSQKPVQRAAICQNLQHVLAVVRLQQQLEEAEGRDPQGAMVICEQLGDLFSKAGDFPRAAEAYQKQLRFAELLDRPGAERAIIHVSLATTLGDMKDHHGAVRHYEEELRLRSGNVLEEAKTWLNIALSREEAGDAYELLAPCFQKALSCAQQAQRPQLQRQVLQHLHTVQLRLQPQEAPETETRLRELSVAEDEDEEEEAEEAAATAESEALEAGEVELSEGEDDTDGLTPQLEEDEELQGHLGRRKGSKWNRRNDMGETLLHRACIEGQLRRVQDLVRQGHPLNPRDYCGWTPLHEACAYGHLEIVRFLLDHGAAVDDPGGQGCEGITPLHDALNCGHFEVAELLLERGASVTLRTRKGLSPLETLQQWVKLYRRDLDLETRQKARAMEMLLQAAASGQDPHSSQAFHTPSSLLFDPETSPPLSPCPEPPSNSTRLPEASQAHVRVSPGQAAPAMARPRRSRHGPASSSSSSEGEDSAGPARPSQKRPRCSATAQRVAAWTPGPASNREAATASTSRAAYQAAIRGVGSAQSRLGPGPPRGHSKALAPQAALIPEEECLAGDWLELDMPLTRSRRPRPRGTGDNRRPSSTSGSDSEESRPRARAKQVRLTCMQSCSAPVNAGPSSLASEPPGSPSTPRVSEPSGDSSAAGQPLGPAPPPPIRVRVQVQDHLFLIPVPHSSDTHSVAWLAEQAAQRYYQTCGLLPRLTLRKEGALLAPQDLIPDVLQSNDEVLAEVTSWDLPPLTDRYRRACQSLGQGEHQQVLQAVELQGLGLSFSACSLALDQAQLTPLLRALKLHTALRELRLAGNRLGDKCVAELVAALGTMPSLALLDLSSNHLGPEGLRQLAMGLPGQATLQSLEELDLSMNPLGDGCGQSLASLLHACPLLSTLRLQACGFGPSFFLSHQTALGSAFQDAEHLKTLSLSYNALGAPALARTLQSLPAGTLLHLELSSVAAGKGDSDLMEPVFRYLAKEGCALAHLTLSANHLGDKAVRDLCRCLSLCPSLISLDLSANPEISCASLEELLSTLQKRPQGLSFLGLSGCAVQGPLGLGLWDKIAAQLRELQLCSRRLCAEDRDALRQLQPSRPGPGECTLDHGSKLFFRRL
The assay is described as above.

B1: MMS22L (endogenous, in cell extracts) (other, UniProt Q6ZRQ5 1-1243, looked up)
chain: MENCSAASTFLTDSLELELGTEWCKPPYFSCAVDNRGGGKHFSGESYLCSGALKRLILNLDPLPTNFEEDTLEIFGIQWVTETALVNSSRELFHLFRQQLYNLETLLQSSCDFGKVSTLHCKADNIRQQCVLFLHYVKVFIFRYLKVQNAESHVPVHPYEALEAQLPSVLIDELHGLLLYIGHLSELPSVNIGAFVNQNQIKLFPPSWHLLHLHLDIHWLVLEILYMLGEKLKQVVYGHQFMNLASDNLTNISLFEEHCETLLCDLISLSLNRYDKVRSSESLMSDQCPCLCIKELWVLLIHLLDHRSKWFVSESFWNWLNKLLKTLLEKSSDRRRSSMPVIQSRDPLGFSWWIITHVASFYKFDRHGVPDEMRKVESNWNFVEELLKKSISVQGVILEEQLRMYLHCCLTLCDFWEPNIAIVTILWEYYSKNLNSSFSISWLPFKGLANTMKSPLSMLEMVKTCCCDKQDQELYKSSSSYTIFLCILAKVVKKAMKSNGPHPWKQVKGRIYSKFHQKRMEELTEVGLQNFFSLFLLLAAVAEVEDVASHVLDLLNFLKPAFVTSQRALIWKGHMAFLLMYAQKNLDIGVLAEKFSCAFREKAKEFLVSKNEEMVQRQTIWTLLSIYIDGVQEVFETSYCLYPSHEKLLNDGFSMLLRACRESELRTVLSFLQAVLARIRSMHQQLCQELQRDNVDLFVQSSLSAKERHLAAVASALWRHFFSFLKSQRMSQVVPFSQLADAAADFTLLAMDMPSTAPSDFQPQPVISIIQLFGWDDIICPQVVARYLSHVLQNSTLCEALSHSGYVSFQALTVRSWIRCVLQMYIKNLSGPDDLLIDKNLEEAVEKEYMKQLVKLTRLLFNLSEVKSIFSKAQVEYLSISEDPKKALVRFFEAVGVTYGNVQTLSDKSAMVTKSLEYLGEVLKYIKPYLGKKVFSAGLQLTYGMMGILVKSWAQIFATSKAQKLLFRIIDCLLLPHAVLQQEKELPAPMLSAIQKSLPLYLQGMCIVCCQSQNPNAYLNQLLGNVIEQYIGRFLPASPYVSDLGQHPVLLALRNTATIPPISSLKKCIVQVIRKSYLEYKGSSPPPRLASILAFILQLFKETNTDIYEVELLLPGILKCLVLVSEPQVKRLATENLQYMVKACQVGSEEEPSSQLTSVFRQFIQDYGMRYYYQVYSILETVATLDQQVVIHLISTLTQSLKDSEQKWGLGRNIAQREAYSKLLSHLGQMGQDEMQRLENDNT
Turning to B1, the binding result with GFP-TONSL W563A and with GFP-TONSL N571A was “binds” in each case.
